Laboratory results as given in paper PMC5719442.

Legend:
[1] = molecular target: AnPrx6, Prx6 (1-Cys peroxiredoxin) from Anabaena sp. strain PCC 7120 (Anabaena sp. PCC 7120); assay: SAXS; 1.6 mg/ml and 4.8 mg/ml protein; mass from Hen Egg White Lysozyme standard and from Porod volume
[2] = molecular target: AnPrx6, Prx6 (1-Cys peroxiredoxin) from Anabaena sp. strain PCC 7120 (Anabaena sp. PCC 7120); assay: SEC; analytical SEC at 0.1, 1 and 10 mg/ml protein, without or with 20 mM H2O2; BioRad Gel Filtration Standard

AnPrx6, Prx6 (1-Cys peroxiredoxin) from Anabaena sp. strain PCC 7120 (enzyme)
stoichiometry N [1]: 2 | stoichiometry N [2]: 2
